Laboratory results taken from publication PMC2894018 (2010).

B1: HIV-1 Vpr from NL43 (Vpr^wt) fused to the N- or C-terminal fragment of Venus [HIV-1 (NL43)] / itself (parent complex)
chain: MEQAPEDQGPQREPYNEWTLELLEELKSEAVRHFPRIWLHNLGQHIYETYGDTWAGVEAIIRILQQLLFIHFRIGCRHSRIGVTRQRRARNGASRS

Variants of: B1
Experiment: BiFC (bimolecular fluorescence complementation), flow cytometry on cells; cells cotransfected with VC and VN fusions of the same Vpr mutant; vector control 0.1; parent: 35.7

Variant | response
chain 1 H71R | 1.65 % BiFC positive cells
chain 1 A30L | 1.19 % BiFC positive cells
chain 1 L68E | 1.03 % BiFC positive cells
